Series [1] relates to MPC cells. It counts as cell-based, mouse. To be noted: relative loss normalized to initial SSTR2-specific binding. As for the experimental part:
MPC cells (2.25 × 10^5/well) were seeded into collagen coated CELLSTAR 48‑well microplates (Greiner Bio‑One, 67180) and grown for three days. Cell culture medium and washing buffer were pre-warmed at 37 °C, unless specified otherwise. Radioligands were prepared at a molar activity of 40 MBq/nmol. Cells were incubated with the radioligands at a final concentration of 2.5 nmol/L in 0.5 mL of cell culture medium for 1 hour at 37 °C. Non-specific binding was determined in presence of 1 µmol/L acetyl-TATE. Binding to plastic surfaces was determined in cell-free cavities. At the end of radioligand exposure, incubation medium was removed, and cells were washed three times with Dulbecco's phosphate-buffered saline containing 0.9 mmol/L CaCl2 and 0.5 mmol/L MgCl2. Cells were overlayed with 0.5 mL of radioligand-free medium and further incubated at 37 °C for a total duration of 24 hours. At specific sampling points (1, 2, 5, and 24 hours), supernatants were removed from all cavities. […] Activity of cell homogenates was measured using the gamma counter Wizard^2 2480 (PerkinElmer, Waltham, MA, USA). Release kinetics were analyzed by non-linear regression using the 'two phase decay' model implemented in Prism 10 (GraphPad Software) with the 'Top' and 'Bottom' parameters constrained at 100 %, and 0 %, respectively.

For series [2] the following is noted: cited from earlier work.
Series [3] relates to MPC cells. The experiment in a line: Uptake of radioligands in intact MPC cells (acid wash). It counts as cell-based, mouse. To be noted: 25 nmol/L; for Uptake fraction: non-acid-releasable fraction normalized to specifically bound radioligand. As to the method: Uptake of SSTR2 radioligands was measured and analyzed as previously described, with some modifications. In brief, radioligands were prepared at a molar activity of 25 MBq/nmol. […] Non-specific binding and uptake were measured in presence of 1 µmol/L acetyl-TATE. The uptake fraction of radioligands was measured after acid wash with Dulbecco's phosphate-buffered saline containing 0.9 mmol/L CaCl2, 0.5 mmol/L MgCl2, and 0.05 mol/L glycine, pH 2.8, for 5 min.

Series [4] relates to HEK293-SSTR2+ tumor xenografts. Particulars: within seven days, cited from earlier work.
Series [5] in a line: Absorbed dose calculation in tumors and kidneys of MPC allograft mice. To be noted: mouse, in vivo. As to the method: (§1) Unless specified otherwise, all activity values are reported without decay correction. Time courses of normalized activity concentrations [% initial A/mL] (organs, tumors) or normalized activity amounts [% initial A] (total body, urinary bladder) were analyzed by non-linear regression using the 'One-phase decay', 'Plateau followed by one-phase decay', or 'Two-phase decay' models implemented in Prism 10 (GraphPad Software), with extrapolated y‑values approaching a lower limit constrained to 0. The normalized time-cumulated activity per milliliter of tissue [% initial A/mL × d] was calculated from areas under time-activity curves. For dose estimation in tumors and kidneys, these values were further converted into total time-cumulated organ activity per initial activity dose [MBq × h/MBq] using a realistic dosimetry model for 30‑g‑mice implemented in Olinda 2.2.3 (Hermes Medical Solutions AB, Stockholm, Sweden). The physical density of tissues was assumed to be 1 g/cm^3. The radionuclide-specific mean absorbed tissue dose DT [Gy] in tumors and kidneys was calculated using the sphere model in Olinda 2.2.3 (Hermes Medical Solutions AB).

The conditions of series [6]: human. As to the method: Tissue-specific pharmacokinetic profiles of radioligands in mice were transformed into human time scale and organ masses using allometric scaling, and dose calculations were performed as reported elsewhere, with some modifications. In brief, projected cumulated activity in human organs was calculated by curve fitting as described above for investigations in mice. Calculations were performed separately for female and male subjects. Cumulated activity in the urinary bladder was determined assuming a voiding interval of four hours. Projected human doses were calculated for male and female subjects using the ICRP 89 Adult Female (60 kg) and ICRP 89 Adult Male (73 kg) models implemented in Olinda 2.2.3 (Hermes Medical Solutions AB).

Series [7] is described as follows: Tissue pharmacokinetics by quantitative SPECT imaging in MPC allograft mice. To be noted: mouse, in vivo; for tissue uptake per volume at 1 h / tissue uptake per volume at 5 h / tissue uptake per volume at 72 h / tissue uptake per volume at 168 h / Heart (blood) concentration half-life eff. / Liver concentration half-life eff. / Total body contents half-life eff.: female; for tissue uptake per volume at 1 h / tissue uptake per volume at 5 h / tissue uptake per volume at 72 h / tissue uptake per volume at 168 h: Rj:NMRI-Foxn1^nu/nu nude, iv, 50 MBq, total radioactivity; for Heart (blood) concentration half-life eff. / Liver concentration half-life eff. / Total body contents half-life eff.: nude (Rj:NMRI-Foxn1^nu/nu). As for the experimental part:
All animal experiments were carried out according to the guidelines of the German Regulations for Animal Welfare and have been approved by the local Ethical Committee for Animal Experiments. MPC cells (4 × 10^6) were injected subcutaneously into the shoulder of 10-14‑week‑old female nude mice (Rj:NMRI-Foxn1^nu/nu, Janvier Labs, Le Genest-Saint-Isle, France). Prior to treatment and imaging procedures, anesthesia was induced and maintained with inhalation of 10 % (v/v) desflurane in 30/10 % (v/v) oxygen/air. During anesthesia, animals were continuously warmed at 37 °C. Body weight was monitored three times per week and tumor diameters were measured using a caliper. Tumor volume was calculated assuming a tri‑axial ellipsoid with the diameters a, b, and c using the formula V = π/6 × a × b × c. For urine collection, animals were separated in clear conventional rodent boxes. After spontaneous micturition, voided urine was aspirated with a pipette tip, diluted 1:2 with ultrapure water and stored at -80 °C until further processing. For blood sampling, animals were placed in a restrainer and 50 µL of blood were collected from a lateral tail vein using a syringe needle rinsed with heparin. Blood samples were mixed with 4 µL of a 10 % (w/v) aqueous potassium-EDTA solution and kept at 4 °C until further processing. Animals were sacrificed using CO2 inhalation and cervical dislocation.
Tumor-bearing mice were treated with the SSTR2 radioligands at a single initial activity dose of 50 MBq delivered in 0.2 mL of 0.154 mol/L NaCl(aq) through injection into a tail vein (see Supporting information, Table S 1 for further details). Small-animal single-photon emission computed tomography (SPECT) was performed using the Mediso NanoScan® SPECT/CT (Mediso Medical Imaging Systems, Budapest, Hungary). […] With each SPECT scan, a corresponding CT image was recorded and used for anatomical referencing and attenuation correction. Details on image acquisition and reconstruction parameters are included in the Supporting information.
Regions of interest (ROIs) were generated using tissue-specific signal intensity thresholds. ROI-averaged activity concentrations in tissues [MBq/mL] were determined. Details on SPECT image resolution, image quantification tests, and tissue delineation are included in the Supporting information.
as §1
Method: Extraction of tissue -specific activity concentrations from SPECT/CT images Tissue-specific regions of interest (ROIs) were generated in ROVER 3.0.77h (ABX). Sphere masks were positioned to pre -select tissue -specific regions for delineation. ROIs were generated within the masks using tissue -specific threshold -based delineation (% of maximum voxel intensity within the given mask)

The test system of series [8] is GOT‑1 xenografts. Particulars: mouse, in vivo; cited from earlier work.
For series [9] the following is noted: mouse, in vivo; cited from earlier work.
For series [10] the following is noted: cited from earlier work. The source holds these as a separate data set.
The test system of series [11] is NCI‑H69 xenografts. Particulars: mouse, in vivo; cited from earlier work.

The structures appear in SMILES notation. Like-named read-outs stand apart in the source and are kept apart here.

With `C[C@@H](O)[C@H](NC(=O)[C@@H]1CSSC[C@H](NC(=O)[C@@H](Cc2ccccc2)NC(=O)CCC(C(=O)O)N2CCN(CC(=O)O)CCN(CC(=O)O)CC2)C(=O)N[C@@H](Cc2ccc(O)cc2)C(=O)N[C@H](Cc2c[nH]c3ccccc23)C(=O)N[C@@H](CCCCN)C(=O)N[C@@H]([C@@H](C)O)C(=O)N1)C(=O)O` (stereo partly drawn) [[^64Cu]Cu‑NODAGA-TATE, metal not drawn], the 24 h release in series [1] was 73 ± 1.9^ # %. For the same molecule, in [1] (1 hour exposure), the Fast fraction worked out at 42 ± 3.3%. For the same molecule, in series [2], the plasma half-life was greater than 1440 min. The “effective uptake lower compared to [177Lu]Lu-DOTA-TATE” value in series [3] (MPC cells) turned out to be 77%. Besides, the Uptake fraction in series [3] is recorded as 64 ± 4.1%.

In series [3] (listed as DOTA ^64Cu), `C[C@@H](O)[C@H](NC(=O)[C@@H]1CSSC[C@H](NC(=O)[C@@H](Cc2ccccc2)NC(=O)CN2CCN(CC(=O)O)CCN(CC(=O)O)CCN(CC(=O)O)CC2)C(=O)N[C@@H](Cc2ccc(O)cc2)C(=O)N[C@H](Cc2c[nH]c3ccccc23)C(=O)N[C@@H](CCCCN)C(=O)N[C@@H]([C@@H](C)O)C(=O)N1)C(=O)O` [[^64Cu]Cu‑DOTA-TATE, metal not drawn] showed an Uptake fraction of 61 ± 4.6%. In addition, the “release from tumor xenografts” value in series [4] (reported, reference not given) was 86%.

Molecule `C[C@@H](O)[C@H](NC(=O)[C@@H]1CSSC[C@H](NC(=O)[C@@H](Cc2ccccc2)NC(=O)CN2CCN(CC(=O)O)CCN(CC(=O)O)CCN(CC(=O)O)CC2)C(=O)N[C@@H](Cc2ccc(O)cc2)C(=O)N[C@H](Cc2c[nH]c3ccccc23)C(=O)N[C@@H](CCCCN)C(=O)N[C@@H]([C@@H](C)O)C(=O)N1)C(=O)O` [[^68Ga]Ga‑DOTA-TATE, metal not drawn] gave an Uptake fraction in [3] (listed as DOTA ^68Ga) of 87 ± 1.9%.

In the case of `C[C@@H](O)[C@H](NC(=O)[C@@H]1CSSC[C@H](NC(=O)[C@@H](Cc2ccccc2)NC(=O)CCC(C(=O)O)N2CCN(CC(=O)O)CCN(CC(=O)O)CC2)C(=O)N[C@@H](Cc2ccc(O)cc2)C(=O)N[C@H](Cc2c[nH]c3ccccc23)C(=O)N[C@@H](CCCCN)C(=O)N[C@@H]([C@@H](C)O)C(=O)N1)C(=O)O` (stereo partly drawn) [[^67Cu]Cu‑NODAGA-TATE, metal not drawn], in series [5], the “DT, Kidneys (mean absorbed dose in kidneys)” value is recorded as 2.42 ± 0.20 Gy and the “estimated absorbed dose in kidneys” value is recorded as 2.42-2.81 Gy/50 MBq. Moreover, in series [6], the “extrapolated female blood effective half-life” value was 52.8 min. The tissue uptake per volume at 1 h in series [7] (Heart) was 0.35 ± 0.13 %ID/mL. In series [7] (Kidneys), the tissue uptake per volume at 1 h was 6.69 ± 0.46 %ID/mL and the tissue uptake per volume at 5 h was 3.87 ± 0.26 %ID/mL. In [7] (Liver), the tissue uptake per volume at 1 h amounted to 0.63 ± 0.01 %ID/mL, the tissue uptake per volume at 5 h turned out to be 0.57 ± 0.01 %ID/mL, the tissue uptake per volume at 72 h came out at 0.15 ± 0.04 %ID/mL and the tissue uptake per volume at 168 h was 0.03 ± 0.02 %ID/mL. In addition, in series [7] (Tumor), the tissue uptake per volume at 1 h stood at 17.7 ± 1.83 %ID/mL, the tissue uptake per volume at 5 h was 13.5 ± 1.4 %ID/mL and the tissue uptake per volume at 72 h was 0.14 ± 0.01 %ID/mL. In series [7], the “Heart (blood) concentration half-life eff.” value amounted to 7.8 min, the “Liver concentration half-life eff.” value amounted to 1210 ± 241 min and the “Total body contents half-life eff.” value worked out at 19.2 min.

For the molecule `C[C@@H](O)[C@H](NC(=O)[C@@H]1CSSC[C@H](NC(=O)[C@@H](Cc2ccccc2)NC(=O)CN2CCN(CC(=O)O)CCN(CC(=O)O)CCN(CC(=O)O)CC2)C(=O)N[C@@H](Cc2ccc(O)cc2)C(=O)N[C@H](Cc2c[nH]c3ccccc23)C(=O)N[C@@H](CCCCN)C(=O)N[C@@H]([C@@H](C)O)C(=O)N1)C(=O)O` [[^177Lu]Lu‑DOTA-TATE, metal not drawn], in series [8], the “absorbed tumor dose per administered activity” value is recorded as 0.27 Gy, the “release from tumor xenografts” value is listed as 47% and the “total absorbed dose in tumors” value is recorded as 8.1 Gy. For the same molecule, in series [5], the “DT, Kidneys (mean absorbed dose in kidneys)” value was 2.81 ± 0.14 Gy; the “absorbed doses in MPC tumors” value is listed as 22.0-41.1 Gy; the “estimated absorbed dose in kidneys” value is reported as 2.42-2.81 Gy/50 MBq; the “highest absorbed dose in MPC tumors per administered activity” value was 0.80-0.82 Gy/MBq. Moreover, the “threshold dose for proximal tubular damage, absorbed in renal cortex” value in [9] is recorded as 24 Gy. Besides, the “extrapolated female blood effective half-life” value in [6] was 49.8 min. The “total absorbed kidney doses well tolerated without acute nephrotoxicity” value in [10] (clinical experience) is “up to 23 Gy”. Moreover, in series [10] (human, in vivo), the “human effective dose in clinical dosimetry” value was 0.069 mSv/MBq. In addition, the “release from tumor xenografts” value in series [4] is on record as 95%. Moreover, the tissue uptake per volume at 1 h in series [7] (Heart) is 0.21 ± 0.18 %ID/mL. In series [7] (Kidneys), the tissue uptake per volume at 1 h stood at 4.05 ± 0.01 %ID/mL, the tissue uptake per volume at 5 h was determined as 3.23 ± 0.04 %ID/mL and the tissue uptake per volume at 72 h came to 0.08 ± 0.01 %ID/mL. The tissue uptake per volume at 1 h in series [7] (Liver) turned out to be 0.24 ± 0.04 %ID/mL. Also, in [7] (Tumor), the tissue uptake per volume at 72 h is 6.79 ± 0.55 %ID/mL and the tissue uptake per volume at 168 h was found to be 1.33 ± 0.11 %ID/mL. Besides, the tissue uptake per volume at 1 h in series [7] (1 h, decay-corrected, Am 40 MBq/nmol, read-out: Tumor) came to 22.7 ± 1.84 %ID/mL. In addition, in [7], the “Heart (blood) concentration half-life eff.” value came out at 7.8 min, the “Liver concentration half-life eff.” value was determined as 68.4 ± 1.2 min, the “Total body contents half-life eff.” value stood at 15 min and the “release from MPC tumors” value was determined as 94%. Moreover, in series [11], the “absorbed tumor dose per administered activity” value is on record as 0.33-0.36 Gy/MBq, the “release from tumor xenografts” value is 68−85% and the “total absorbed dose in tumors” value is 10.0-10.2 Gy.

(Values after article PMC11413788, “The heterobivalent (SSTR2/albumin) radioligand [^67Cu]Cu-NODAGA-cLAB4-TATE enables efficient somatostatin receptor radionuclide theranostics” (Theranostics, 2024).)
